# Key:
# [1] = target: Grb2 SH2 (UniProt P62993); experiment: SH2 binding enrichment of the phosphorylated peptide, bacterial display (enrichment ratio); higher = better substrate or ligand; peptides without Tyr show the background
# [2] = target: SHP2-C SH2; experiment: as above
# [3] = target: c-Src SH2; experiment: as above
# [4] = test system: c-Src; experiment: phosphorylation enrichment, bacterial display (enrichment ratio); higher = better substrate or ligand; peptides without Tyr show the background
# [5] = target: Fes (UniProt P07332); experiment: as above
# [6] = target: EPHB2 (UniProt P29323); experiment: as above
# [7] = target: Jak2 (UniProt O60674); experiment: as above
# [8] = target: Hck (UniProt P08631); experiment: as above
# [9] = target: Fyn (UniProt P06241); experiment: as above
# [10] = test system: AncSZ; experiment: as above
# [11] = test system: Fer (mouse); experiment: as above
# [12] = target: MERTK (UniProt Q12866); experiment: as above
# [13] = target: EPHB1 (UniProt P54762); experiment: as above
# [14] = target: FGFR3 (UniProt P22607); experiment: as above
# [15] = test system: c-Abl (mouse); experiment: as above
# [16] = target: FGFR1 (UniProt P11362); experiment: as above
# 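For SH2 binding enrichment of the phosphorylated peptide, bacterial display in this document: peptide library displayed on the E. coli surface as eCPX fusions, selected cells deep-sequenced, score is each peptide's frequency after selection divided by its frequency in the input.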
# 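For phosphorylation enrichment, bacterial display in this document: 11-residue human phosphosite peptides and single-mutation variants displayed on the E. coli surface, counted by deep sequencing, each peptide's frequency after selection divided by its frequency in the unselected input library; frequency after pTyr selection over input frequency; kinase dosed for 20-30% of maximal phosphorylation in three min.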
# FGFR1, sequence (P11362 whole entry, looked up, the tested form may be a part): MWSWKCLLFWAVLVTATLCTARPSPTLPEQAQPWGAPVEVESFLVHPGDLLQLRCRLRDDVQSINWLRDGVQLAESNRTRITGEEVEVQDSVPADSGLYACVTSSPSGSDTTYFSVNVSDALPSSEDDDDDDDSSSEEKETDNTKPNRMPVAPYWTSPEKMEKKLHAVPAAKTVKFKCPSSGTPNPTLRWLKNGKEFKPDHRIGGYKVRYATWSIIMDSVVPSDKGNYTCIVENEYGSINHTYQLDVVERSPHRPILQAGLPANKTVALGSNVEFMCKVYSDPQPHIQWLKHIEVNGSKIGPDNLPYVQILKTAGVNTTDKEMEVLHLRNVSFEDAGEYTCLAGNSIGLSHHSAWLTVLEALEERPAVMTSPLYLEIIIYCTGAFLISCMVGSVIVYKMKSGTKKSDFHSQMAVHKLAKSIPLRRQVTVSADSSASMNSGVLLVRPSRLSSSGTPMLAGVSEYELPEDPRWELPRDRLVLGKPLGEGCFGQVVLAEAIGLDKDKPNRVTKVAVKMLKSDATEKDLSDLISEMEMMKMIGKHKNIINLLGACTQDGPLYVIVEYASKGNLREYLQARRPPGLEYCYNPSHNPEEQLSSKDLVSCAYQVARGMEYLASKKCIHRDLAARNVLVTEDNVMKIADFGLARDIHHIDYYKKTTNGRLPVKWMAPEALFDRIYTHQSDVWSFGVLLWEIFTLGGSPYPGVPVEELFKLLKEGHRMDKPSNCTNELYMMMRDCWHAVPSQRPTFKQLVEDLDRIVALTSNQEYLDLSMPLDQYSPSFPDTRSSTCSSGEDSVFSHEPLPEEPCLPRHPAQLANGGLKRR
# Jak2, sequence (O60674 whole entry, looked up): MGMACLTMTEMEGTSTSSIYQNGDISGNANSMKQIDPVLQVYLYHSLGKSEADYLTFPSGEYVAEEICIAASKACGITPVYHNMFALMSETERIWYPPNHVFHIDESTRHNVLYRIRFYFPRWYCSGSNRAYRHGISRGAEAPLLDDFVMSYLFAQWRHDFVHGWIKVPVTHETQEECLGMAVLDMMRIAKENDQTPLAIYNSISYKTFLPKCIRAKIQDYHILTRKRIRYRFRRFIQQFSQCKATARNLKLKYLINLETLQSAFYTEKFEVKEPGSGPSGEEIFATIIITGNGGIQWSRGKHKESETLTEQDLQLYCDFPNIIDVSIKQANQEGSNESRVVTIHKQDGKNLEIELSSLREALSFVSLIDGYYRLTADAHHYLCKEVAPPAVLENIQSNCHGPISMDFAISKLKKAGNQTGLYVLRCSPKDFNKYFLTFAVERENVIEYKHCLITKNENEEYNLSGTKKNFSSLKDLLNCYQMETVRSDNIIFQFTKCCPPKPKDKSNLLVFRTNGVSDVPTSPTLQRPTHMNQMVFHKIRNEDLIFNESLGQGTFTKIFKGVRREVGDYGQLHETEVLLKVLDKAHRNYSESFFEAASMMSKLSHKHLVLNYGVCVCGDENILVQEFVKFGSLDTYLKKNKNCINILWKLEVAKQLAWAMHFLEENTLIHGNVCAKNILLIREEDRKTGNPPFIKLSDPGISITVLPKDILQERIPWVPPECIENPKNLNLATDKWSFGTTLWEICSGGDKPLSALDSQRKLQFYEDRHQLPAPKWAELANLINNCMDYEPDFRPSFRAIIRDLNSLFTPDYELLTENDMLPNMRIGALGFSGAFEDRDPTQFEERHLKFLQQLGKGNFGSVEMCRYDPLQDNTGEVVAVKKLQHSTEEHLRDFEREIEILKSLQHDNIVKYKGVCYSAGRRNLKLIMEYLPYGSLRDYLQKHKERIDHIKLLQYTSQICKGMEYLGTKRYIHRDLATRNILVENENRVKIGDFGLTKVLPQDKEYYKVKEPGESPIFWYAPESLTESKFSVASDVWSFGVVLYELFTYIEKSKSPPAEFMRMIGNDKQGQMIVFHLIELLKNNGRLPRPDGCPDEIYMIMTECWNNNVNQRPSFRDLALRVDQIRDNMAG
# MERTK, sequence (Q12866 whole entry, looked up): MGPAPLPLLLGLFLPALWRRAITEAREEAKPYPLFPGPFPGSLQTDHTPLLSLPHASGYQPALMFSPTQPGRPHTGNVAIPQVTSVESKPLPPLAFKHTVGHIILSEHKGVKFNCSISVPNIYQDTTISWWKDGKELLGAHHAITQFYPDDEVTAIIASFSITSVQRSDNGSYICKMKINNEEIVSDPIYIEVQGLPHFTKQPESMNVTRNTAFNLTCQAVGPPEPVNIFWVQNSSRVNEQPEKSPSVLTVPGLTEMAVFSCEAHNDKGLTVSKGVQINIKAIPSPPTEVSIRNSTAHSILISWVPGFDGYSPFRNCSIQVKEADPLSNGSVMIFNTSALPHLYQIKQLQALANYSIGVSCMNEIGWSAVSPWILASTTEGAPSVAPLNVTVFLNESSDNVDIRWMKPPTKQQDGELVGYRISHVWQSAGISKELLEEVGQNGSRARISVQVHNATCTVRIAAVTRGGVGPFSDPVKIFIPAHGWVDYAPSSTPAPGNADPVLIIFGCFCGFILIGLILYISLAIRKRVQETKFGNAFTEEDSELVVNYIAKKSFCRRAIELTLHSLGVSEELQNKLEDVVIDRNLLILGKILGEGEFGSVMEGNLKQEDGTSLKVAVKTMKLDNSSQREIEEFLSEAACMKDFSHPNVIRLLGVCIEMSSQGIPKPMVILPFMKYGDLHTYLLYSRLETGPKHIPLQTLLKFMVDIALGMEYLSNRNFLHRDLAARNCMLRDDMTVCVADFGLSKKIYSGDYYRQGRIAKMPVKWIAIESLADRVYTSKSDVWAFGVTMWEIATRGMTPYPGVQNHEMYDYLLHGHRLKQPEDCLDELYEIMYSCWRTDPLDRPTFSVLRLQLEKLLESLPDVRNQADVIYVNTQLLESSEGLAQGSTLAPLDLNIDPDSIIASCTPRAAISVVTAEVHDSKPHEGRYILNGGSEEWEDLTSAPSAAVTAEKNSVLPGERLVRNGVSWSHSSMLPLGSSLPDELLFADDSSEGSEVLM
# EPHB2, sequence (P29323 whole entry, looked up): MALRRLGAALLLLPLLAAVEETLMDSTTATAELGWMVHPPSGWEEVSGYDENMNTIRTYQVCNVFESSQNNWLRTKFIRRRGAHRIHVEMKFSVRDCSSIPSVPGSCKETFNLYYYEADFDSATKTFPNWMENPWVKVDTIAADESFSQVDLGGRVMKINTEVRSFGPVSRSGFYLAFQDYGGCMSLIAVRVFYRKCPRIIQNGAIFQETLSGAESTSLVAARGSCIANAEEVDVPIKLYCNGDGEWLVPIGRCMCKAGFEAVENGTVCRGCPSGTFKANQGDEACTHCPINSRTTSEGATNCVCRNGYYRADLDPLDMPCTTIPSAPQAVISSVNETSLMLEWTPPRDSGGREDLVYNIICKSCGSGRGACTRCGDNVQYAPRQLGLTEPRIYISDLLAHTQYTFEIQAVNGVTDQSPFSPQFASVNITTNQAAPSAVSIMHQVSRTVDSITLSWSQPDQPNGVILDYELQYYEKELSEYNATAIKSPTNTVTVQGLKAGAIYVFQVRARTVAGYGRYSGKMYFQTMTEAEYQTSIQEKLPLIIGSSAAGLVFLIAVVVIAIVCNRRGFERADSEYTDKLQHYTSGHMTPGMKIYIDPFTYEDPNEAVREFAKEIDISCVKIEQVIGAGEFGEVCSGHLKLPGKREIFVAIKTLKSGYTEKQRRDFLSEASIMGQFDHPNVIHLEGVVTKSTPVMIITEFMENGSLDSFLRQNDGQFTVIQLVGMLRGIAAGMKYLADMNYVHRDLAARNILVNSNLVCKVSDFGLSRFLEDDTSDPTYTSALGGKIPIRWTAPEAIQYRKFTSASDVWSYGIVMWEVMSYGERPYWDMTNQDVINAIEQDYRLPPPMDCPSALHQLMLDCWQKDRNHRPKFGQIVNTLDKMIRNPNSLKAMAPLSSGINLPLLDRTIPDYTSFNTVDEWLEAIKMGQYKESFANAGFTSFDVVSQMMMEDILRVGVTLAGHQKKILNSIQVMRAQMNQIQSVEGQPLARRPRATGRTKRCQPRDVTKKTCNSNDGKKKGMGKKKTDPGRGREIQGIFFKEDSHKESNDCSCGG
# Hck, sequence (P08631 whole entry, looked up): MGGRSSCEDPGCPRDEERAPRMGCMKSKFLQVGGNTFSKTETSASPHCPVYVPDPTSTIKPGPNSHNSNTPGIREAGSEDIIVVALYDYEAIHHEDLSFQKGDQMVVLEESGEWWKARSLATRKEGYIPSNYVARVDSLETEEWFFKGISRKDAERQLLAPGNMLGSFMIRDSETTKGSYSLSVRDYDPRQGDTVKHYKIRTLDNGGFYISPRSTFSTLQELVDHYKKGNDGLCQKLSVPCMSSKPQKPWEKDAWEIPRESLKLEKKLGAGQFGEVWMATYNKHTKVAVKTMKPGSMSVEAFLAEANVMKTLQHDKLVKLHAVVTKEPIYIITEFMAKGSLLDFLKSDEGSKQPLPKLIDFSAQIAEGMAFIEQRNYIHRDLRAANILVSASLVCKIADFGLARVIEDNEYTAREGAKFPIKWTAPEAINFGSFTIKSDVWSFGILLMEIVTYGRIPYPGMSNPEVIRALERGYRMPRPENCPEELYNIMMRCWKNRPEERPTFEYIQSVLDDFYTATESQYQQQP
# Fyn, sequence (P06241 whole entry, looked up): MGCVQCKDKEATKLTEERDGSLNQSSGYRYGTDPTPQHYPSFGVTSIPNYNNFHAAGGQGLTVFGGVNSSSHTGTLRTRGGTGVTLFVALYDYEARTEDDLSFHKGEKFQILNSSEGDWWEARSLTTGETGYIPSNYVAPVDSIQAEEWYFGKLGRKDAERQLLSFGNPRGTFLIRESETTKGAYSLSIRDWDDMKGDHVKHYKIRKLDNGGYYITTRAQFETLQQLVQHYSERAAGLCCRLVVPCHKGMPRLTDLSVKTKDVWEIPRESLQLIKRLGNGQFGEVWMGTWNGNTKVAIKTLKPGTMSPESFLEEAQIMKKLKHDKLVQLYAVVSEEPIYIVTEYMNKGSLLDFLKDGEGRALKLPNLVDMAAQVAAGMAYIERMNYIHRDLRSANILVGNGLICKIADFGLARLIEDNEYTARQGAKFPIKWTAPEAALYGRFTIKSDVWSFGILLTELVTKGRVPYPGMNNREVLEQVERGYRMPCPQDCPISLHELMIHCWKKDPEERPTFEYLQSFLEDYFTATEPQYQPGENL
SH2 binding enrichment [1],SH2 binding enrichment [2],SH2 binding enrichment [3],Sequence,phosphorylation enrichment [4],phosphorylation enrichment [5],phosphorylation enrichment [6],phosphorylation enrichment [7],phosphorylation enrichment [8],phosphorylation enrichment [9],phosphorylation enrichment [10],phosphorylation enrichment [11],phosphorylation enrichment [12],phosphorylation enrichment [13],phosphorylation enrichment [14],phosphorylation enrichment [15],phosphorylation enrichment [16]
0.918,0.955,0.897,IVFTSYFLTIL [TAS2R16_Y239],0.514,1.89,0.709,1.76,0.633,0.578,1.45,0.511,0.476,0.676,0.976,1.05,0.641
1.47,1.86,3.29,CTTIHYNYTCN [TP53_Y234_M237T],0.414,0.837,0.556,0.726,0.416,0.445,0.756,0.476,0.403,0.492,0.624,0.585,0.47
1.41,0.748,0.44,LARDIYKNDFF [ROS1_Y2110_YF],2.29,2.15,0.933,2.38,0.599,1.47,2.31,1.14,1.57,0.962,0.592,1.31,0.68
1.45,1.55,1.08,HQKKPYCHTHN [NRAP_Y53_A56T],0.794,2.33,0.854,3.44,1.13,1.04,1.88,1.34,0.627,1.7,3.53,1.21,1.27
1.13,0.821,0.542,FPKDVYVDSKD [NDUFAF4_Y69_L65P],0.416,0.839,0.36,0.769,0.444,0.409,0.868,0.367,0.377,0.38,0.59,0.543,0.588
0.804,0.521,0.522,NTGDDYDLYGG [PTPN11_Y63_Y62D],1.65,1.17,1.05,0.912,2.47,1.51,1.33,0.775,0.494,0.581,0.683,0.684,0.51
0.53,0.793,0.458,HEEDNYIELIP [NWD2_Y566],1.3,2.29,1.91,2.21,1.02,0.905,3.19,1.27,1.33,2.98,5.2,1.89,6.02
0.768,0.787,2.15,EYGFRYELVQY [UGGT2_Y1289],0.584,1.65,0.879,1.62,0.674,0.558,1.83,3.36,0.631,0.986,1.17,0.932,0.872
0.913,0.696,0.4,GDFFRSLAEVA [YWHAG_Y133_Y133S_YF],0.425,0.865,0.503,0.72,0.405,0.464,0.871,0.438,0.357,0.423,0.595,0.721,0.486
0.803,0.628,0.488,SGETEYNPTEA [NBEAL2_Y2748],0.59,1.55,0.671,1.26,0.707,0.69,1.47,0.604,0.562,0.729,0.82,1.16,0.77
0.411,0.38,0.295,FQASFYRRGDR [LTK_Y677_R673Q_YF],0.525,0.688,0.486,0.441,0.501,0.55,0.717,0.495,0.511,0.443,0.523,0.647,0.532
1.09,0.975,0.578,MDFRSYPREFG [RBM10_Y44_YF],0.431,0.858,0.454,0.63,0.388,0.366,0.606,0.366,0.352,0.437,0.511,0.455,0.529
0.793,0.643,0.777,TEQMAYCPIQC [SHC4_Y403],0.949,1.02,0.676,1.26,0.949,0.421,1.17,1.14,0.678,0.434,0.737,0.754,0.609

# Further lines, the sequence ahead of its results:
Sequence,SH2 binding enrichment [1],SH2 binding enrichment [2],SH2 binding enrichment [3],phosphorylation enrichment [4],phosphorylation enrichment [5],phosphorylation enrichment [6],phosphorylation enrichment [7],phosphorylation enrichment [8],phosphorylation enrichment [9],phosphorylation enrichment [10],phosphorylation enrichment [11],phosphorylation enrichment [12],phosphorylation enrichment [13],phosphorylation enrichment [14],phosphorylation enrichment [15],phosphorylation enrichment [16]
KLKPIYFHTQG [AR_Y916_V912L],1.78,2.12,1.95,0.523,0.671,0.503,0.513,0.364,0.349,0.602,0.312,0.4,0.393,0.525,0.568,0.511
YLTSSYINIST [IL23R_Y178],11.7,1.9,2.21,0.466,1.18,0.588,1.81,0.637,0.488,0.978,0.567,0.648,0.735,1.29,1.11,1.27
FKDYFYCWNTF [AICDA_Y146],0.878,0.662,0.474,1.41,1.34,2.87,3.71,0.557,0.652,2.04,1.46,2.8,4.05,7.02,1.22,8.79
PESCLYKESWL [IQGAP2_Y630],0.916,1.06,0.523,0.775,2.81,1.2,2.09,1.5,1.21,2.25,1.18,1.2,1.29,2.14,1.46,1.55
ANVKWYRNGRE,0.658,0.487,0.512,0.485,0.738,0.578,0.665,0.484,0.43,0.867,0.457,0.468,0.509,0.485,0.479,0.409
REVPVYTFSEP [FAM120B_Y368_D370Y_YF],1.16,0.8,0.496,9.04,1.54,1.06,1.1,4.36,11.5,1.83,11.1,3.58,1.9,1.33,1.72,1.14
IAAEYYDNLPH [DEGS1_Y284],0.88,0.542,1.13,0.782,1.02,0.813,0.98,2.42,0.613,1.75,0.874,0.917,0.797,5.34,0.808,7.81
AVLSLYASGST [ACTG2_Y144_R148S],1.06,0.907,0.611,0.541,1.26,0.722,1.09,0.638,0.476,1.08,0.558,0.414,0.729,0.723,0.829,0.572
HHLSTYTKMLF [CHST8_Y251_R247H],1.11,3.88,2.54,0.71,1.32,0.902,0.743,0.814,0.989,1.39,0.504,0.541,0.956,1.05,0.792,0.714
WKGSWYSMRKM [FGB_Y475],1.78,1.48,1.97,0.538,1.11,0.513,0.847,0.523,0.49,1.07,0.473,0.499,0.588,0.716,0.71,0.676
TDLAYYLVREG [ASL_Y376_K380E],0.751,2.07,1.51,1.67,0.905,0.706,3.04,0.955,0.734,1.54,0.466,1.34,0.578,7.06,0.579,9.61
PQEVMYAQLDH [KIR3DL2_Y398_T397M],0.748,6.57,1.21,7.15,1.52,0.621,1.71,5.19,6.26,1.62,4.04,6.77,1.06,2.2,7.37,2.69
TLKDVYDDGKY [RPS6KA3_Y483],0.85,0.737,0.528,0.62,1.12,0.497,0.909,0.706,0.58,1.02,0.506,0.557,0.51,0.64,0.758,0.557
LQTYRYHGHSM [PDHA1_Y289],0.879,0.646,0.561,0.285,0.513,0.337,0.569,0.288,0.414,0.52,0.455,0.698,0.489,0.395,0.411,0.323
STTSDYQWDFS [MTDH_Y364_V368F],0.821,0.637,0.573,0.58,1.1,0.776,1.14,0.524,0.473,1.36,0.598,0.409,0.905,1.27,0.736,1.24
RREWYYEVIIV [BACE1_Y260],0.873,0.75,0.545,0.635,0.751,0.725,0.389,0.718,0.571,0.874,0.835,0.832,0.516,2.03,0.771,2.85
